The text below walks through data of the DeepSol protein solubility set.

The data set can be described thus: soluble on expression in E. coli; label from the status in PepcDB or PDB records.
With “MKIKWLGHACFLLTSDNGIRVVTDPYDNTVGYKVEKIDAEIVSTSHDHYDHNYVDMVSENAKHVKSEGKTNIDGIEITGVTSFHDDCKGAKRGKNVIFKFKIDGIDVCHLGDLGHVLSDSQVREIGNVDVLLVPVGGVYTIDYKGAVEVMKLVNPKITIPMHYKTPALSFDVDGVENFLSATGGKHIGKQEIELKKDEIENWPKVVALDYQ”, the “soluble on expression in E. coli” value was “soluble”.
As to “MSLKKNIYPNKEGCPVEFTLDVIGGKWKGILFYHMIDGKKRFNEFRRICPSITQRMLTLQLRELEADGIVHREVYHQVPPKVEYSLTEFGRTLEPIVLQMKEWGESNRDVLESYRSNGLVKDQQKEGGSHHHHHH”, the “soluble on expression in E. coli” value is recorded as “soluble”.
The same measure for “MSLDQQSKEQLNIREMTKEDVPQVFDLERRSFNDSSWTIDAFYHEIEQNNFAKYFVLEFEQQIIGYLGLWIVIDQAQITTVAIDDNYRGYGLGQMLLKYGINYASHTCDVMSLEVRVNNKVAQHVYENLGFQYGGKRKNYYGEGEDAMVMWVNLNDEGHHHHHH”: “soluble”; for “MKFPGPLENQRLSFLLEKAITREAQMWKVNVRKMPSNQNVSPSQRDEVIQWLAKLKYQFNLYPETFALASSLLDRFLATVKAHPKYLSCIAISCFFLAAKTVEEDERIPVLKVLARDSFCGCSSSEILRMERIILDKLNWDLHTATPLDFLHIFHAIAVSTRPQLLFSLPKLSPSQHLAVLTKQLLHCMACNQLLQFRGSMLALAMVSLEMEKLIPDWLSLTIELLQKAQMDSSQLIHCRELVAHHLSTLQSSLPLNSVYVYRPLKHTLVTCDKGVFRLHPSSVPGPDFSKDNSKPEVPVRGTAAFYHHLPAASGCKQTSTKRKVEEMEVDDFYDGIKRLYNEDNVSENVGSVCGTDLSRQEGHASPCPPLQPVSVM”: “not soluble”.
Turning to “MGSDKIHHHHHHKEQNLDDFEQEYQNYQVNDPLSGYNKAMTSFNVALYDYGLRPVLKGYNAITPEFIRLGARNFFDNLLAPLRFVSNVLQFKFEEAGEEFKRFTANTIMGFGGLMDVASKMGLKKHPADLGTVLAHWGVGSGFHIVLPILGPSNLRDTLTLPATWYASFTAYIDPTWASIAISAYGFGNELSFRLDEIDEIYHNTPNLYPFLRDAYEQRRNELSK”, the “soluble on expression in E. coli” value is “not soluble”.
The same measure for “LAWKRMEEHDWTCDCIRCREAGHSDDVAENIELDVMTYEACGGMEHFISFEDFENDVLVGFCRLRFPNDPVRRELQDAAIVRELHVYGNAVGVGQEGDDEDHQHKGYGKKLLEKAEVLARDAGFPKLAVISGIGVRQYYREKLGYKQDGPYVSKRL”: “not soluble”.
The value for “MAHHHHHHMKGGKQKFDRAIHKTEGMDGALPNEVLEPLEEVYKPSLRVDVTAEPPEENENSTGTTPVTSVTPHVSTNIFVAGLPPSWDENDLRKKFQEFGEIISTRLVRQRHFAFVMFRRPESAHAAINATHLTHPTPNSSMFLHVSIAMHDEGVDEIPNDRIFIRGLPQWANKDHLRHCFSRFGSIVDSAVLMNPLGQCKGSGFVQFSSIDEATEAIKARKTIRIENWDAELEIKYSETAEVRQQRQERNKNRQRHSPKYGQHQLQYQLFNSSASVVSPIPAFPVLGMSAPFPFFYPRPALSPAASPHIIYSPMVPSPVVPVYPSPPVVFKSKLDLFPSSGDLLFTGVSLTESTLLSLLQCYGKVESKDIFDDAGAAVRMVDRGLHAIIVQQLNGTIFPDGKVMSVVLYP” was “not soluble”; that for “MGSDKIHHHHHHMSGKPAARVTDPTTCPVPGHGSNPIVQGSPDVVFDGLPAARQGDASACGSPMISAVSSTVLINGLPAVTLGSIGAHGNVVIGGSGTVLIGDVFTPAPRAPALPLNRNSVPCSGRFQLIDHETGKPVAGRRVRVWSSGGWNAFDTTDADGMTSWIERPTAEILYIDLVQRCDA” was “not soluble”.
The same measure for “MDGDFRTDFVREPGALKHHPALVLNADYRPLSYYPLSLWPWQEAIKAAWLDRVDIIAEYDEVVRSPSVVLRIPSVVVLKDYVKPQKRVAFTRFNLFLRDEFRCQYCGGKGDLTFDHVVPRAAGGVTSWENVVAACAPCNLRKGSKSLRQANMSLRRPPRRPQAEELQNVGRKFPPNHLHESWMDFLYWDAELDALEHHHHHH”: “not soluble”; for “MRLPILIINFKAYGEAAGKRAVELAKAAERAARELGVNIVVAPNHLELGLVSQSVDIPVYAQGADVEAGGAHTAHVSLENIKEAGGSGVILNHSEAPLKLNDLARLVAKAKSLGLDVVVCAPDPRTSLAAAALGPHAVAVEPPELIGTGRAVSRYKPEAIVETVGLVSRHFPEVSVITGAGIESGDDVAAALRLGTRGVLLASAAVKAKDPYAKIVELAKPLSELR”: “soluble”; for “WQGLSSKGDLPQVEITKAFFAKQADEVTLQQADVVLVLQQEDGWLYGERLRDGETGWFPEDFARFI”: “soluble”.
Consider “MGHHHHHHSHMVGWQEGANHKNGAGRSQKQEMAEKMVPEVASGEEIGGRSEAGRESPDLFRPNTVEARDRPAGPPFSKSASVRVLQRSRTNRDYIPIEHIQSPIGIYNML”, for which the “soluble on expression in E. coli” value is listed as “not soluble”.
The value for “DILLTQSPAILSVSPGERVSFSCRASQSIGTDIHWYQQRTNGSPRLLIKYASESISGIPSRFSGSGSGTDFTLSINSVESEDIANYYCQQSNRWPFTFGSGTKLEIKRADAAPTVSIFPPSSEQLTSGGASVVCFLNNFYPKDINVKWKIDGSERQNGVLNSWTDQDSKDSTYSMSSTLTLTKDEYERHNSYTCEATHKTSTSPIVKSFNRN” was “soluble”.
The same measure for “SSRERIKRELPPVQEHIDKLRKVIEEGNYYGALQMYKSISARYVTAQRFSEALDILFSGACIELEHGLVNCGADLAILFVDTLVKATSPCNDETLDRIRCIFKLFPRVPVPPHLVDVSDDEDVQNLQESLGEARSRVENLTSFLRAAIKWSAEFGGPRTGYPELHAMLGDYLYTECPELDMVRISRHFVRAEDPEKFASMLVNFMGRCYPGEDDLAIARAVLMYLSMGNMKDANFMMDEIKKQAETKNPELSESDLIQFISYLLETLQRDALPLFNMLRVKYKSSIDRDQLLNELLDEIAERFYGVQRKNPLQGMFGDIFKMMG”: “soluble”; for “MGSDKIHHHHHHAKIRAKNADSYPFMYKNYPFLRPWVDSLNQAHALRDTFVLNPEGIRLHAYYIAAPQPTKKTAVIVHGYTDNAIRMFMIGYLYNHDLQYNVLLPDLQHQGESGGPAIQMGWKDRLDVMQWMHIANQIYGDSTQMVVHGISMGGATTMMVSGEAQPYFVKCFVEDCGYTSVWDEFSHELKSSFHLPSFPLMNTTSWLCQKKYGWNFEEASSLNQVKKSHLPMFFIHGDKDTYVPTWMVYPLYEAKSAPKQLWIVPGAAHAVSYKENKEEYTRKVKEFTDRYIH”: “not soluble”.
The value for “MTQDDFFDLTPVEDFDSYDPLADTEDEEFDLEAPAESGMFLVEPGEFPTVDELASQAEALQQAPAAQRIATLFDHMERSRKILLGILEMCDGQVQPNELVISRIEKLKANNKSVYTPDNMCMMLVRAGALRRVTQDGTDYEDIEDTLEPKRVVIDGVEYLEPVQAPQICWLTTPEGSQVVAADQPRARLRELLENEPQYRHVFRTVLEMCAPDGGTTQKALSAALDNDPALMHPRMYAMRFAERLAQNDALEWRDNAWRITDIGSEGLDIIAELDAAEQADD” was “not soluble”; that for “MLEEELARKIERYFSIEEEALKKIRISPAEGSFLRKIAEDNMQMILSYYSDAKHFYAKGDLINAFAALNYSYGWIDAGVRLGIFDGAGDHRLFTLYE” was “not soluble”.
As for “MSLAPRQVNCILRTNEHTQEFFGGSVKSYDSNQLASNSPIEDSRSEASCVHTSGLLLGIFDGHGGPACSQVISKRLMRYIAASLVPPDDLRQHVLNGAQSFSFLSCHNDKARCGYEIKELYEKSFHQFANELTNTTLAGFQMHQTLENAFIRLDQDLSREAIEMPSLRTMSVAMSGAVALVAHIDGPHLHVASVGDCSAVLGTVTDTGQWMAKKLTNEHNSDNVGEVRRLLSEHPATERDTVIRGERLLGQLAPLRAMGDFRYKWSREQLEQLVVPQFGEQVIAPYYLTPPYLSACPEITHHILTPRDKFLIIASDGLWDTMSAMQTVHLVGEHMYGKAFLQPLTLPKQDITLGEISQMLTTRKAGLQKKPLDRNAATHLIRNALGGTEYGVEHSKLSHMLSLPQDIVRLFRDDITITVVYFDSEYLEGHHHHHH”, the “soluble on expression in E. coli” value is recorded as “not soluble”.
The same measure for “NQLLTQQANEDGLTKLFNRRYIDQKLDSMVAWHGRHHMPMAMILLDVDFFKPFNDNYGHIEGDRCLQAIANQLKATFCRSGEYVGRYGGEEFVVLLSSTDAQTAEREAERIQEAMYFLDYQHEFSSVANRVTVSQGVFVFQPTGKENQADLYATADRALYTSKSLGRNTYTMVNAS”: “not soluble”; for “MLRSLLIRATAPAVCAGLLWTAAPAHAQSPAPTRPVSSDTWADRATGTYRALQKHLYEGPGDHGLYLEHTPRQATDQEHSYLWPFREAAQAAVDMQRLPRTGPAYRQDAAERFDTAELYHTGGERPGYRSYLPAPLGTGGDVYYDDNAVVALSQLDQYEETGDARYLRRAEQVVPVVSRAWDGDAAKACPGGMDWYDAPGNTIRATNVTALSAQLAARLYEHTRNRAYLDKAEQWYGWVYACMRKAPGLYVNDRGDDGSTNETLWTYNSGAMIGTATALYRGTGDARYLEKAVADARGSLAYWTGGTRLHDQPAVFNAFYFKDLLDLDAVRPDSAYLSAMSAYADNTYRSNRDASSGLFRFQPSNGGDYDPAAPAATLNQSAMVQIFATLADATRRDHRTSLEHHHHHH”: “not soluble”; for “MGSDKIHHHHHHMNVTDLPQACISLIENVPGIDFIDEDFAIFDNIDDIPSLDHPMRIDAVVFALCTKGFMRIRINMEEYVVGENHLVLSLPDQIIQHVERSEDVAGIFIVISKNFMEEIIPHIQNTLPAFFYIKEHPVTELNAEEIGCIKEYHSFLWKKVKAKRHPYRKEIAQSLLLAVFHEVYGMFKNHMPIEVKKSRQEELFAAFIQTLALHHKQERSVAFYAGKLCVTPKYLSLLVKNVSNRTAGEWIDNYVVLEAKALLSSSTLSIQEISDRLNFTNQSFFGKYFKQHVGISPTEYRKKW”: “not soluble”.
Take “MGSDKIHHHHHHASCNKFDDLNTNPDAATKVTAPMLATKLILNITQQGSAKNFVYHSMLSKQIAWSENASDEQYNLFGRTDFDGYTILTNCQKMVDAANEGDKDSYAALAKFMKAYKLFYKSLEVGDIPYSDALKGEEGVQKPKYDTQKEVMRQVLEDLEEAYTLFSSGSDFDGDPIFGGDTENWKKTVVAFELKVLTHLCKKDTDADLKVKERFARLVSSGSLMTSNADNFQLVYSNKAGQLYPFYYTQNKHSDYLMMSSVIIDNLKKFNDYRMFYYASPAKAQTDKGIKDSEWDAYLSIDPSDSYSNISVLYGKGEFCLANLRYTRVPEGEPLMRLSYAEQNFILAEGAVRGWISEDASTYYKKGIEASMNFIADNTPDKEEYTHGRTITQEYIQEYLAQPVIQLSGDKEKDLEMILLQRYLASFLQHPYDAYYDYRRTGYPVLPINPSTNLNTEKNKIPTRWMYPEAEFSYNPDNANEAVQRQYNGSDDVNKLMWILQ”: the “soluble on expression in E. coli” value is “not soluble”.
The same measure for “PLLIKNGEIITADSRYKADIYAEGETITRIGQNLEAPPGTEVIDATGKYVFPGFIDPHVHIYLPFMATFAKDTHETGSKAALMGGTTTYIEMCCPSRNDDALEGYQLWKSKAEGNSYCDYTFHMAVSKFDEKTEGQLREIVADGISSFKIFLSYKNFFGVDDGEMYQTLRLAKELGVIVTAHCENAELVGRLQQKLLSEGKTGPEWHEPSRPEAVEAEGTARFATFLETTGATGYVVHLSCKPALDAAMAAKARGVPIYIESVIPHFLLDKTYAERGGVEAMKYIMSPPLRDKRNQKVLWDALAQGFIDTVGTDHCPFDTEQKLLGKEAFTAIPNGIPAIEDRVNLLYTYGVSRGRLDIHRFVDAASTKAAKLFGLFPRKGTIAVGSDADLVVYDPQYRGTISVKTQHVNNDYNGFEGFEIDGRPSVVTVRGKVAVRDGQFVGEKGWGKLLRREPMYF”: “soluble”.
